Data on 14 molecules can be found in patent US20150125491A1 (AURIGENE DISCOVERY TECHNOLOGIES, published 2015).

The labels stand for the following.
B1: Compound 2 (peptide)
peptide: SETSKSF-NH2
modifications: lactam 2-5; N-terminus assumed
SMILES: C[C@@H](O)[C@@H]1NC(=O)[C@@H](NC(=O)[C@@H](N)CO)CCC(=O)NCCCC[C@@H](C(=O)N[C@@H](CO)C(=O)N[C@@H](Cc2ccccc2)C(N)=O)NC(=O)[C@H](CO)NC1=O
B2: Compound 14 (peptide)
peptide: SNTSESFQ
modifications: cyclised between the N-terminal amino group of Ser and the alpha-carboxyl of the C-terminal Glu, which was attached to Rink amide resin through its gamma-carboxyl (gives Gln)
B3: Compound 15 (peptide)
peptide: cyclo(SNTSESF[Ahx]Q)
SMILES: C[C@@H](O)[C@@H]1NC(=O)[C@H](CC(N)=O)NC(=O)[C@H](CO)NC(=O)[C@H](CCC(N)=O)NC(=O)CCCCCNC(=O)[C@H](Cc2ccccc2)NC(=O)[C@H](CO)NC(=O)[C@H](CCC(=O)O)NC(=O)[C@H](CO)NC1=O

Bridges are numbered along the chain shown (N, C = ends). Where no end group is shown, it is not given here. [ ]: non-standard residue; d: D form. Ahx = NCCCCCC(=O)O

PD-1 on mouse splenocytes (mouse), sequence (Q02242 25-288): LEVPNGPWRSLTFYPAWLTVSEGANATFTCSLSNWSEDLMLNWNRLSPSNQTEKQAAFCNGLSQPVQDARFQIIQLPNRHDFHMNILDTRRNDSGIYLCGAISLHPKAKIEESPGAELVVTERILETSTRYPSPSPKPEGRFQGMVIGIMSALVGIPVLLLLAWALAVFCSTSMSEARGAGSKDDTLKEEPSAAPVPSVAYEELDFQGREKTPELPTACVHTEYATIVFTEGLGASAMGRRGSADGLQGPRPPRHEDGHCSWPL

In one assay the target is PD-L1 expressed on MDA-MB-231 cells (UniProt Q9NZQ7 19-290, limits assumed). Nature of the assay: cell-based or functional assay.
PD-L1 expressed on MDA-MB-231 cells, sequence (Q9NZQ7 19-290 limits assumed): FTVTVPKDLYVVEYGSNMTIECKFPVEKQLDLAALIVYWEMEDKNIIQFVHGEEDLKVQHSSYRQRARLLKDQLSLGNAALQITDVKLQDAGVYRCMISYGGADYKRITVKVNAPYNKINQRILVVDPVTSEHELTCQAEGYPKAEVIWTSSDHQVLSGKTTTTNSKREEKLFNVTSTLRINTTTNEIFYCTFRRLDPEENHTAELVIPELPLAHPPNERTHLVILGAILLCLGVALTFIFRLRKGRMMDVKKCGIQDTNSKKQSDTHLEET
Consider SETSKSFQ (not fully specified; also: cyclic, bridge and C-terminus not given here) [Compound 16], for which the “% Splenocyte proliferation” value came out at 36% and the Fold induction came to 2.8 fold.

In the case of SETSKSI (not fully specified; also: cyclic, bridge and C-terminus not given here) [Compound 5], the “% Splenocyte proliferation” value is 42% and the Fold induction was determined as 3.2 fold. On to B1, for which the “% Splenocyte proliferation” value is 57% and the Fold induction was determined as 4.3 fold. With cyclo([Ahx]SETSKSFQ) [Compound 17], the “% Splenocyte proliferation” value turned out to be 42% and the Fold induction is 3.2 fold. For the molecule SKTSESF-NH2 (lactam 2-5) [Compound 1], the “% Splenocyte proliferation” value amounted to 60% and the Fold induction amounted to 4.6 fold. With SETSKVF (not fully specified; also: cyclic, bridge and C-terminus not given here) [Compound 7], the “% Splenocyte proliferation” value is 52% and the Fold induction was 4 fold.

As for B2, the “% Splenocyte proliferation” value amounted to 55% and the Fold induction came to 4.2 fold. On to IETSKSF (not fully specified; also: cyclic, bridge and C-terminus not given here) [Compound 6], for which the “% Splenocyte proliferation” value is 55% and the Fold induction is 4.2 fold. Consider IEMSKSQ (not fully specified; also: cyclic, bridge and C-terminus not given here) [Compound 11], for which the “% Splenocyte proliferation” value worked out at 54% and the Fold induction came to 4.2 fold. Regarding EETSKSF (not fully specified; also: cyclic, bridge and C-terminus not given here) [Compound 4], the “% Splenocyte proliferation” value came to 36% and the Fold induction came out at 2.8 fold.

In the case of B3, the “% Splenocyte proliferation” value was found to be 53% and the Fold induction is 4 fold. For SETSKSFE (not fully specified; also: cyclic, bridge and C-terminus not given here) [Compound 20], the “% Splenocyte proliferation” value amounted to 36% and the Fold induction stood at 2.8 fold. Regarding IEMSKVQ-OH (lactam 2-5) [Compound 12], the “% Splenocyte proliferation” value was 39% and the Fold induction was 3 fold.

Another assay concerns the target PD-1 on mouse splenocytes (mouse) (UniProt Q02242). Briefly: cell-based or functional assay.
As for “PD-L1 expressed on MDA-MB-231 cells (from UniProt Q9NZQ7 19-290) (ligand)”, the % Splenocyte proliferation (Background proliferation: Splenocytes+anti-CD3/CD28+PDL or Tumor) was found to be 13%.
